Measurements from patent publication US20090104119A1, “Dendrimer Based Compositions And Methods Of Using The Same” (priority 2004, published 2009).

How the values were obtained:
[1] = Toxicity of dendrimer conjugates and free methotrexate in mice (body weight, histopathology); assay type: in vivo; settings: occasional periportal lymphocytes, single-cell necrosis
Procedure: Delivery of targeted nanoparticle therapeutic. Twice weekly, SCID mice with s.c. KB xenografts, starting on day 4 after tumor implantation, received via the tail vein an injection of either targeted or nontargeted conjugate containing methotrexate, a conjugate without methotrexate, free methotrexate, or saline as a control. The compounds were delivered in a 0.2 mL volume of saline per 20 g of mouse. The single dose of methotrexate delivered each time equaled 0.33 mg/kg. The higher doses of 1.67 and 3.33 mg/kg free methotrexate were also tested. The conjugates were delivered at equimolar concentration of methotrexate calculated based on the number of methotrexate molecules present in a nanoparticle. The conjugate without methotrexate was delivered at equimolar concentration of dendrimer. In the initial trial, six groups of mice with five mice in each group received up to 15 injections. In the follow-up trial, mice received up to 28 injections dependent on their survival. The body weights of the mice were monitored throughout the experiment as an indication of adverse effects of the drug. Histopathology of multiple organs was done at the termination of each trial and each time mouse had to be euthanized due to toxic effects or tumor burden. Tissues from lung, heart, liver, pancreas, spleen, kidney, and tumor were analyzed. Additionally, cells were isolated from tumors, stained with targeted fluorescein-labeled conjugate, and tested for the presence of folic acid receptors using flow cytometer.
Toxicity of dendrimer conjugates. […] No gross toxicity, either acutely or chronically up to 99 days, was observed regardless of whether the dendrimer conjugate contained methotrexate. The weight was monitored throughout the experiment and no loss of weight was observed; in fact, the animals gained weight. At each time point, a gross examination and histopathology of the liver, spleen, kidney, lung, and heart were done. No morphologic abnormalities were observed on the histopathology examination.
The remaining experimental groups had very uniform body weight fluctuations nonindicative of toxicity when compared with control groups with saline or conjugate without methotrexate.

[2] = Stability of dendrimer in cell culture medium (MTX release; ultrafiltration, XTT readout); assay type: physicochemical
Procedure: The stability of the dendrimer was tested in cell culture medium to check if MTX was released from the dendrimer prior to its entry into the cells. The G5-FITC-FA-MTX was incubated with cell culture medium for 1, 2, 4 and 24 h, and the incubation medium was filtered using a 10,000-MW cutoff ultrafiltration device. The effect of the retentate and the filtrate on the growth of the KB cells was tested. G5-FITC-FA-MTX was incubated with medium at 2 μM concentration for 24 h. The incubation medium was filtered through a Centricon 10K-MW cutoff filter. The retentate (adjusted to pre-filtration volume) and the filtrate were incubated with KB cells (at 200 nM conjugate, as determined from the concentration of the pre-filtration sample) for 2 days and the XTT assay was performed. Similar results were obtained for the retentate and filtrate obtained from the medium that had been pre-incubated with the dendrimers for 1, 2, and 4 hours. […] There was a slow release of the MTX after 24 h, reaching a maximum of 40-50% release in 1 week.

KB cells = test: Inhibition of cell growth by total cell protein
Procedure: Cell culture and treatment. KB cells were maintained in folate-free medium containing 10% serum (See, e.g., Quintana et al, Pharm. Res. 19, 1310 (2002)) to provide extracellular FA similar to that found in human serum. Cells were plated in 12-well plates for uptake studies, in 24-well plates for cell growth analysis, and in 96-well plates for XTT assay. Cells were rinsed with FA-free medium containing dialyzed serum and incubated at 37° C. with dendrimer-drug conjugates for the indicated time periods and concentrations. KB cells were also maintained in RPMI medium containing 2 μM FA to obtain cells which express low FAR.
Evaluation of dendrimer cytotoxicity. Cell growth was determined by assay of the total protein in lysates of treated cells using a bicinchoninic acid reagent (PIERCE, and by XTT assay, using a kit from Roche.
Time course and dose dependent inhibition of cell growth. Previous studies have shown that MTX-induced cytotoxicity is detectable in vitro only if the medium is completely deprived of FA (See, e.g., Sobrero & Bertino, Int. J. Cell Cloning 4, 51 (1986)). The effect of the trifunctional dendrimers on cell growth was tested in cells incubated in a FA-deficient medium. Cells were treated with 300 nM conjugates (equivalent of 1500 nM MTX) or 1500 nM free MTX for 1-4 days, and cell proliferation was determined by estimation of cellular protein content. Cells were treated for 2 days with different concentrations of the conjugates or free MTX (the conjugate concentration is given as MTX equivalents, with 5 MTX per dendrimer molecule). KB cells which express high and low FAR were incubated with 30 nM of the dendrimers for 1 hr at 37° C., rinsed, and the fluorescence of cells was determined by flow cytometric analysis (See. e.g., FIG. 21, left panel).
KB cells were treated with 150 or 500 nM MTX in the presence or absence of equimolar concentrations of free FA for 24 h. […] The cells were rinsed to remove the drugs and incubated with fresh medium for an additional 6 d, and total cell protein was determined.

[3] = 2 μM, up to 24 h in medium, 10K-MW cutoff filter, KB cells 2 days, XTT

Q: Which “liver slides versus saline controls” value [1] does the source give for “G5-(Ac)82-(FITC)5-(FA)5-MTX5 [G5-FITC-FA-MTX]” here?
A: did not differ from that of control animals injected with saline

Q: What about the “cytotoxicity of filtrate after incubation in medium” value [2, 3] of the same substance?
A: failed to show any cytotoxicity

Q: What about the “cytotoxicity of retentate after incubation in medium” value [2, 3] of the same substance?
A: cytotoxic

Q: What about the “release of MTX, maximum” value ([2]; slow release after 24 h, in 1 week) of the same substance?
A: 40-50%

Q: What about the “cytotoxicity compared with equimolar combinations of free FA and MTX” value (KB cells; 30 and 100 nM conjugate (150 and 500 nM MTX), 24 h then 6 d) of the same substance?
A: similar

Q: And the “inhibition of cell growth (FIGS. 21 and 22)” value (KB cells; FA-deficient medium, 1-4 days, different concentrations)?
A: inhibited cell growth in a time- and dose-dependent fashion
